# Columns and labels:
# [1] = molecular target: BAG family molecular chaperone regulator 2 (Mus musculus) (UniProt Q91YN9); experiment: anti-HA co-IP from muscle, MS; CTRL 0
# [2] = molecular target: Sodium/calcium exchanger 1 (Mus musculus) (UniProt P70414); experiment: anti-HA co-IP from muscle, MS; CTRL 0
# [3] = molecular target: Phosphatidylinositol 5-phosphate 4-kinase type-2 beta (Mus musculus) (UniProt Q80XI4); experiment: anti-HA co-IP from muscle, MS; CTRL 0
# [4] = molecular target: 60S ribosomal protein L15 (Mus musculus) (UniProt Q9CZM2); experiment: anti-HA co-IP from muscle, MS; CTRL 0
# [5] = molecular target: Serine-threonine kinase receptor-associated protein (Mus musculus) (UniProt Q9Z1Z2); experiment: anti-HA co-IP from muscle, MS; CTRL 0
# Serine-threonine kinase receptor-associated protein (Mus musculus), sequence (Q9Z1Z2 whole entry): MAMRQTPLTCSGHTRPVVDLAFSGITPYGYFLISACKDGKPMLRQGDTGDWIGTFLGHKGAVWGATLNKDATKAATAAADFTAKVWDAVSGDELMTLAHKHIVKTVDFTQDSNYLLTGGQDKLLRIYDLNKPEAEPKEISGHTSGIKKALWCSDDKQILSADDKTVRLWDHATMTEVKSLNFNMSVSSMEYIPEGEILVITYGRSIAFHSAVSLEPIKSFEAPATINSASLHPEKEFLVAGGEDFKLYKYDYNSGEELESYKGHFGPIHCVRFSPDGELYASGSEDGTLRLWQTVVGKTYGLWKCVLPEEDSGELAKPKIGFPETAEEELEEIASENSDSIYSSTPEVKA
# [6] = molecular target: Heparin cofactor 2 (Mus musculus) (UniProt P49182); experiment: anti-HA co-IP from muscle, MS; CTRL 0
# [7] = molecular target: GTP-binding protein SAR1b (Mus musculus) (UniProt Q9CQC9); experiment: anti-HA co-IP from muscle, MS; CTRL 0
# GTP-binding protein SAR1b (Mus musculus), sequence (Q9CQC9 whole entry): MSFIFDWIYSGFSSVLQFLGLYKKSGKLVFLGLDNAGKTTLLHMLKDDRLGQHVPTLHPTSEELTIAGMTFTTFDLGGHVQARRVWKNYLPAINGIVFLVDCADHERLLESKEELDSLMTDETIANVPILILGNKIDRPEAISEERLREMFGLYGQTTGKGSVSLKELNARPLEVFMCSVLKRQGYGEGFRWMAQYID
# Emerin (Mus musculus) = Emerin (Mus musculus) (UniProt O08579); experiment: anti-HA co-IP from muscle, MS; CTRL 0
# Emerin (Mus musculus), sequence (O08579 whole entry): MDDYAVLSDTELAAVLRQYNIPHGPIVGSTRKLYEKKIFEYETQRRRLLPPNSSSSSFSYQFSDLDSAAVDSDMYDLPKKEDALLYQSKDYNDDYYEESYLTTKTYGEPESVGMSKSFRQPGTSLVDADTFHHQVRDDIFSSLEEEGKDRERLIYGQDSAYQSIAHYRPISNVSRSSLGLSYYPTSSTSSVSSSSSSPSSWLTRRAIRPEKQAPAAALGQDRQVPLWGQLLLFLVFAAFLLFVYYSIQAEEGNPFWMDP
# [8] = molecular target: Chromatin-remodeling ATPase INO80 (Mus musculus) (UniProt Q6ZPV2); experiment: anti-HA co-IP from muscle, MS; CTRL 0
# Chromatin-remodeling ATPase INO80 (Mus musculus), sequence (Q6ZPV2 whole entry): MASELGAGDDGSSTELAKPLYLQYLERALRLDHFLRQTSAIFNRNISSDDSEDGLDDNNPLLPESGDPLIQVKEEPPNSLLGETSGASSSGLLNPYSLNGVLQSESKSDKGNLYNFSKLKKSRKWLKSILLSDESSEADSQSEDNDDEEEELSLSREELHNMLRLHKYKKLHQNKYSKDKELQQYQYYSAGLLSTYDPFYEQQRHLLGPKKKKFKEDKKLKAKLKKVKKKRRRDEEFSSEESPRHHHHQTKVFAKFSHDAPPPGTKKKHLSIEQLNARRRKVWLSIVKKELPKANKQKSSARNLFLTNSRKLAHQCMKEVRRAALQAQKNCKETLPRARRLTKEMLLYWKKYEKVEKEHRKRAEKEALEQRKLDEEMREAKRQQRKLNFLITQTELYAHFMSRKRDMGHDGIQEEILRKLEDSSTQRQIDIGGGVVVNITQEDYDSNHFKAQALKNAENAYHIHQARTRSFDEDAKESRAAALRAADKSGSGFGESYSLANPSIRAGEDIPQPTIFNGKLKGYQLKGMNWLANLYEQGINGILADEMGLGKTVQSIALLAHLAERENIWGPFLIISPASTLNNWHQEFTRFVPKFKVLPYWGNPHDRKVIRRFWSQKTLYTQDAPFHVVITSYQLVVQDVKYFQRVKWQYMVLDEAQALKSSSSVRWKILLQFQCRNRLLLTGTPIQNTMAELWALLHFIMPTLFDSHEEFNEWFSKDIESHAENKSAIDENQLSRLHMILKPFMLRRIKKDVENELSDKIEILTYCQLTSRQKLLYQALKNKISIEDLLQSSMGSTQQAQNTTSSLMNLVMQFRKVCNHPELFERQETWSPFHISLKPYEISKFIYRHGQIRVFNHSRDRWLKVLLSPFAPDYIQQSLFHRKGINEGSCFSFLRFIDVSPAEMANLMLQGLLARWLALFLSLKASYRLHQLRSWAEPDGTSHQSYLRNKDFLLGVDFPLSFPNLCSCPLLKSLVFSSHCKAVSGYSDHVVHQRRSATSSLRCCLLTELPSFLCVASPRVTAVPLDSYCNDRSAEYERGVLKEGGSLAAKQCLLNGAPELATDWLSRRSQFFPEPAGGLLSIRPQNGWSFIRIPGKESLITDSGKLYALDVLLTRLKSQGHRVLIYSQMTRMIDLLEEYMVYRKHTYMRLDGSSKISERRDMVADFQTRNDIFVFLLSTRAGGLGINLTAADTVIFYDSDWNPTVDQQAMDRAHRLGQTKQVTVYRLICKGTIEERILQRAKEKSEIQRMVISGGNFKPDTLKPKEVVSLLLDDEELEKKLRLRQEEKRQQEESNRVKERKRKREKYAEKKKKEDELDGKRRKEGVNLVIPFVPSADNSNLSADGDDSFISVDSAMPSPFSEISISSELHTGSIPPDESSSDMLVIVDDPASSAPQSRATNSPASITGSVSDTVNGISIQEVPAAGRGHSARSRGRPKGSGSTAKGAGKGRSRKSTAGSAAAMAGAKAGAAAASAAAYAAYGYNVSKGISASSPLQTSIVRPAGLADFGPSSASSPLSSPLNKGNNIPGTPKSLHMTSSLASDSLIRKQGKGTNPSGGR
# [9] = molecular target: DnaJ homolog subfamily B member 2 (Mus musculus) (UniProt Q9QYI5); experiment: anti-HA co-IP from muscle, MS; CTRL 0
# DnaJ homolog subfamily B member 2 (Mus musculus), sequence (Q9QYI5 2-321 limits assumed): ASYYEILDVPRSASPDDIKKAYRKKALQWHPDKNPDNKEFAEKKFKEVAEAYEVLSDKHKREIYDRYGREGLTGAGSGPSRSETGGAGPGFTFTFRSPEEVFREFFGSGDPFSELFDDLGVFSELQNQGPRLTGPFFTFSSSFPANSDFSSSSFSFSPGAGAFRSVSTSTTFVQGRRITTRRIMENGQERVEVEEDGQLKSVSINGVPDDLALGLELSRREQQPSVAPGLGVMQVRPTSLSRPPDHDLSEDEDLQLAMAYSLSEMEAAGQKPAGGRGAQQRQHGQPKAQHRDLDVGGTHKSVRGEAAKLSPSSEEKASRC
# [10] = molecular target: Sorting and assembly machinery component 50 homolog (Mus musculus) (UniProt Q8BGH2); experiment: anti-HA co-IP from muscle, MS; CTRL 0
# [11] = molecular target: Sodium/potassium-transporting ATPase subunit alpha-1 (Mus musculus) (UniProt Q8VDN2); experiment: anti-HA co-IP from muscle, MS; CTRL 0
# [12] = molecular target: von Willebrand factor A domain-containing protein 8 (Mus musculus) (UniProt Q8CC88); experiment: anti-HA co-IP from muscle, MS; CTRL 0
# [13] = molecular target: Popeye domain-containing protein 2 (Mus musculus) (UniProt Q9ES82); experiment: anti-HA co-IP from muscle, MS; CTRL 0
# Popeye domain-containing protein 2 (Mus musculus), sequence (Q9ES82 whole entry, the tested form may be a part): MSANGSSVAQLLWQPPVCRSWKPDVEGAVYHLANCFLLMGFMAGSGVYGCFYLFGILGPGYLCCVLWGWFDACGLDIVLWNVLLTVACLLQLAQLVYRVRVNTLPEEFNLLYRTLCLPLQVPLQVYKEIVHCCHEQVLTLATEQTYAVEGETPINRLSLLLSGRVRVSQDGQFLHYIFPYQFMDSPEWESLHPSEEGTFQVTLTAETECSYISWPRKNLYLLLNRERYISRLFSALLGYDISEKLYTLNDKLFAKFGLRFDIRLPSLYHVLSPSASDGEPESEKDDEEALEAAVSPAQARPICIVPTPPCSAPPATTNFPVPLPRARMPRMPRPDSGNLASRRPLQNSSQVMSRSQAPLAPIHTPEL
# [14] = molecular target: Flavin reductase (NADPH) (Mus musculus) (UniProt Q923D2); experiment: anti-HA co-IP from muscle, MS; CTRL 0
# [15] = molecular target: Solute carrier family 12 member 1 (Mus musculus) (UniProt P55014); experiment: anti-HA co-IP from muscle, MS; CTRL 0
# [16] = molecular target: U1 small nuclear ribonucleoprotein 70 kDa (Mus musculus) (UniProt Q62376); experiment: anti-HA co-IP from muscle, MS; CTRL 0
# [17] = molecular target: Eukaryotic translation initiation factor 5B (Mus musculus) (UniProt Q05D44); experiment: anti-HA co-IP from muscle, MS; CTRL 5
# Biglycan (Mus musculus) = Biglycan (Mus musculus) (UniProt P28653); experiment: anti-HA co-IP from muscle, MS; CTRL 5
# Biglycan (Mus musculus), sequence (P28653 38-369 limits assumed): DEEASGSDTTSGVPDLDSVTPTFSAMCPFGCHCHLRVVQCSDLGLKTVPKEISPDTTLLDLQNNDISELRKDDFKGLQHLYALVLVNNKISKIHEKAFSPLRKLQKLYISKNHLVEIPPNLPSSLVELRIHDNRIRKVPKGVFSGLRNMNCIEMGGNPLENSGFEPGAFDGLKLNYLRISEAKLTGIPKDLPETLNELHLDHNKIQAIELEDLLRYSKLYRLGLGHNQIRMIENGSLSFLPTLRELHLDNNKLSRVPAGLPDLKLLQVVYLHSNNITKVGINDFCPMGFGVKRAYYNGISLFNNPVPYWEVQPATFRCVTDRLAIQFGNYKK
# [18] = molecular target: Spectrin alpha chain, non-erythrocytic 1 (Mus musculus) (UniProt P16546); experiment: anti-HA co-IP from muscle, MS; CTRL 5
# [19] = molecular target: Annexin A6 (Mus musculus) (UniProt P14824); experiment: anti-HA co-IP from muscle, MS; CTRL 5
# [20] = molecular target: Striated muscle-specific serine/threonine-protein kinase (Mus musculus) (UniProt Q62407); experiment: anti-HA co-IP from muscle, MS; CTRL 5
# [21] = molecular target: Spectrin beta chain, non-erythrocytic 1 (Mus musculus) (UniProt Q62261); experiment: anti-HA co-IP from muscle, MS; CTRL 5
# [22] = molecular target: Phosphorylase b kinase regulatory subunit alpha, skeletal muscle isoform (Mus musculus) (UniProt P18826); experiment: anti-HA co-IP from muscle, MS; CTRL 5
# [23] = molecular target: Sodium/potassium-transporting ATPase subunit alpha-2 (Mus musculus) (UniProt Q6PIE5); experiment: anti-HA co-IP from muscle, MS; CTRL 6
# [24] = molecular target: Dystrophin (Mus musculus) (UniProt P11531); experiment: anti-HA co-IP from muscle, MS; CTRL 6
# human BVES fused with 3xHA tag, sequence (Q8NE79 other isoform, or with tags, fused parts or gaps limits assumed): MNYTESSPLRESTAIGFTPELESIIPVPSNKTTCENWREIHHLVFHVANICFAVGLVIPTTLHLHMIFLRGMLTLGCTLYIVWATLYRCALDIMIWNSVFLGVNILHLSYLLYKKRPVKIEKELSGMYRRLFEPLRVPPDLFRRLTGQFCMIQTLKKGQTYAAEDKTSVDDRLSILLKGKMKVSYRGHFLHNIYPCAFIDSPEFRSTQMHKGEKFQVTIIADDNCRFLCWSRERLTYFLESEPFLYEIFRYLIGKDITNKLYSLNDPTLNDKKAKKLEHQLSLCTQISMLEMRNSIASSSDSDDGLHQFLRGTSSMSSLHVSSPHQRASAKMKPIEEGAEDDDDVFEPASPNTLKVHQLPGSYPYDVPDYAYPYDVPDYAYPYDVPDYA
# BAG family molecular chaperone regulator 2 (Mus musculus), sequence (Q91YN9 2-210 limits assumed): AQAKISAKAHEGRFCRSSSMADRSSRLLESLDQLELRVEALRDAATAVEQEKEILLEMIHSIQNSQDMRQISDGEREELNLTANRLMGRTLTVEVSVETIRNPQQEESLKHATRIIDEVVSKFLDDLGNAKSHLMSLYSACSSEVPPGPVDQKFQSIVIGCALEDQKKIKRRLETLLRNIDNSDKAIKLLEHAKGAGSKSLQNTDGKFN
# Sodium/calcium exchanger 1 (Mus musculus), sequence (P70414 33-970 limits assumed): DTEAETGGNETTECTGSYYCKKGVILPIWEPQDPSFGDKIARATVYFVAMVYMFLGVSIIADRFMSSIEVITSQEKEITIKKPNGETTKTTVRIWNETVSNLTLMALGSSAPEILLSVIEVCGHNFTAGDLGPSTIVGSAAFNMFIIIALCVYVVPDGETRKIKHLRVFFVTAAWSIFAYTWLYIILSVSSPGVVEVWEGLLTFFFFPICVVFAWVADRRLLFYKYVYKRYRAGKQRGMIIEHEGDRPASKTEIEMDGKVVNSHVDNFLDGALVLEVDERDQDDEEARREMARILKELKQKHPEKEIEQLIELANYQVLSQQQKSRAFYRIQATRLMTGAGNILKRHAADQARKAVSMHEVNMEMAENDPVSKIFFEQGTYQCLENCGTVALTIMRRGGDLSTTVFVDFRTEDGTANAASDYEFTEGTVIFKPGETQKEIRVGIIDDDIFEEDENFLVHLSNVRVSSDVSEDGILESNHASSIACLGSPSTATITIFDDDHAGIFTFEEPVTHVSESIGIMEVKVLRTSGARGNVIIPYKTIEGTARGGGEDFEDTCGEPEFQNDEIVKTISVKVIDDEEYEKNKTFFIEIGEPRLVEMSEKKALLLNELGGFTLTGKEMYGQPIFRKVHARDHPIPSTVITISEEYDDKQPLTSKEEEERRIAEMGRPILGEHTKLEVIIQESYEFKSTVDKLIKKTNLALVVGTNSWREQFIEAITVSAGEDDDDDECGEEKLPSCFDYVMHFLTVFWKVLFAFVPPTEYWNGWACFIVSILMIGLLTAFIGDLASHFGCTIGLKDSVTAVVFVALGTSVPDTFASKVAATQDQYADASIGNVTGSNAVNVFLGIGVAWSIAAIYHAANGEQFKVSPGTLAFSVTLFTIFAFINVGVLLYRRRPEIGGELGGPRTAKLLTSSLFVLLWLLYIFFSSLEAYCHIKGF
substance,measurement,setting,value
human BVES fused with 3xHA tag (from UniProt Q8NE79 1-360),AAV9-BVES-HA (IP-MS count),[1],6
same,AAV9-BVES-HA (IP-MS count),[2],2
same,AAV9-BVES-HA (IP-MS count),[3],2
same,AAV9-BVES-HA (IP-MS count),[4],4
same,AAV9-BVES-HA (IP-MS count),[5],2
same,AAV9-BVES-HA (IP-MS count),[6],4
same,AAV9-BVES-HA (IP-MS count),[7],3
same,AAV9-BVES-HA (IP-MS count),Emerin (Mus musculus),6
same,AAV9-BVES-HA (IP-MS count),[8],2
same,AAV9-BVES-HA (IP-MS count),[9],2
same,AAV9-BVES-HA (IP-MS count),[10],5
same,AAV9-BVES-HA (IP-MS count),[11],12
same,AAV9-BVES-HA (IP-MS count),[12],4
same,AAV9-BVES-HA (IP-MS count),[13],29
same,AAV9-BVES-HA (IP-MS count),[14],2
same,AAV9-BVES-HA (IP-MS count),[15],2
same,AAV9-BVES-HA (IP-MS count),[16],2
same,AAV9-BVES-HA (IP-MS count),[17],14
same,AAV9-BVES-HA (IP-MS count),Biglycan (Mus musculus),16
same,AAV9-BVES-HA (IP-MS count),[18],24
same,AAV9-BVES-HA (IP-MS count),[19],17
same,AAV9-BVES-HA (IP-MS count),[20],16
same,AAV9-BVES-HA (IP-MS count),[21],19
same,AAV9-BVES-HA (IP-MS count),[22],23
same,AAV9-BVES-HA (IP-MS count),[23],41
same,AAV9-BVES-HA (IP-MS count),[24],77

# Reference: patent publication US20250340902A1, “GENE THERAPY FOR BVES-RELATED DISORDERS” (OHIO STATE INNOVATION FOUNDATION, priority 2022, published 2025)
